Data from patent publication US20170081412A1 (MITSUBISHI TANABE PHARMA, published 2017).

Columns and labels:
recombinant human IL-6R [1] = target: T1, recombinant human IL-6R (human, UniProt P08887 20-365); experiment: SPR: antibody captured on an amine-coupled anti-human antibody (GLM chip), recombinant human IL-6R flowed as analyte
T1 construct: The sandwich ELISA used a His-tagged form; also called soluble IL-6R; His-tagged human IL-6R
T1 sequence: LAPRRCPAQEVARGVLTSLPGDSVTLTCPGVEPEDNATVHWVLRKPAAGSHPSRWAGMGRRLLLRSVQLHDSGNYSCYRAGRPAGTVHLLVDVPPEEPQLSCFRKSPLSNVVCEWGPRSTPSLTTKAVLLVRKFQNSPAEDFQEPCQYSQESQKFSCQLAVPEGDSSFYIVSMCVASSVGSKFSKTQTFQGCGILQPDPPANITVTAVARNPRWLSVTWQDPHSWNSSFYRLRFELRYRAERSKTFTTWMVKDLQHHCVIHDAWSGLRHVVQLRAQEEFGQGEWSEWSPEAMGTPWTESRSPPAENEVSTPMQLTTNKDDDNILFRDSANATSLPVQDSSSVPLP
Description: (§1) To determine the affinity and kinetic parameters of FynomAb binding to human IL-17A and human IL-6R, an anti-human antibody was amine coupled to a GLM chip.

recombinant human IL-6R [2] = target: T1, recombinant human IL-6R; experiment: SPR (representative sensorgram with fit): antibody captured on an amine-coupled anti-human antibody (GLM chip), recombinant human IL-6R flowed as analyte
Description: as §1

recombinant human IL-17A = target: T2, recombinant human IL-17A (human, UniProt Q16552 24-155, limits assumed); experiment: SPR: antibody captured on an amine-coupled anti-human antibody (GLM chip), recombinant human IL-17A flowed as analyte
T2 construct: In the flow cytometry assay it was biotinylated; also called soluble IL-17A
Description: as §1

recombinant human IL-6R [3] = target: T1, recombinant human IL-6R; experiment: SPR, binder captured by anti-human antibody on GLM chip, IL-6R as analyte; average of 4 experiments
Description: as §1

recombinant human IL-6R [4] = target: T1, recombinant human IL-6R; experiment: SPR, binder captured by anti-human antibody on GLM chip, IL-6R as analyte; average of 4 experiments; column head prints nM, value taken as M
Description: as §1

[5] = target: T3, human IL-6R on the surface of HEK Blue IL-6 cells (human, UniProt P08887 20-468); experiment: flow cytometry: HEK-Blue IL-6 cells (IL-6R+), drug titrated about 0.005-300 nM, detected with anti-human IgG-Alexa488
T3 construct: HEK Blue IL-6 cells (Invivogen); also called cell surface IL-6R; HEK-Blue-IL6 cells (IL6R+)
T3 sequence: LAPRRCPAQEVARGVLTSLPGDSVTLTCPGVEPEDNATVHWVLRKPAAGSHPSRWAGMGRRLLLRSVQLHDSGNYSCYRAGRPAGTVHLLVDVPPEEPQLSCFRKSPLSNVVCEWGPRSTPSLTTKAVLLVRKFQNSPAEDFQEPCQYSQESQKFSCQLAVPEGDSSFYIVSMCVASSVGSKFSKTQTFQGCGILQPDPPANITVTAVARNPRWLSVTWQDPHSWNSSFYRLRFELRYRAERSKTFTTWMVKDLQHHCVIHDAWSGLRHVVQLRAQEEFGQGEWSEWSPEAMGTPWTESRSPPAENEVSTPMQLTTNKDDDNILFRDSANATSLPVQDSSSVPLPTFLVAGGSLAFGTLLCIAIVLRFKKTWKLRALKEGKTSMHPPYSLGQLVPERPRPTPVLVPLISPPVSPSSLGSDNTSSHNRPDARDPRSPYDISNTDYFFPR

recombinant human IL-6R [6] = target: T1, recombinant human IL-6R; experiment: SPR (representative sensorgram with fit): antibody captured on an amine-coupled anti-human antibody (GLM chip), recombinant human IL-6R flowed as analyte; remark: listed apart in the source
Description: as §1

recombinant human IL-6R [7] = target: T1, recombinant human IL-6R; experiment: SPR, binder captured by anti-human antibody on GLM chip, IL-6R as analyte; average of 6 experiments; column head prints nM, value taken as M
Description: as §1

recombinant human IL-6R [8] = target: T1, recombinant human IL-6R; experiment: SPR, binder captured by anti-human antibody on GLM chip, IL-6R as analyte; average of 6 experiments
Description: as §1

T2 sequence (Q16552 24-155 limits assumed): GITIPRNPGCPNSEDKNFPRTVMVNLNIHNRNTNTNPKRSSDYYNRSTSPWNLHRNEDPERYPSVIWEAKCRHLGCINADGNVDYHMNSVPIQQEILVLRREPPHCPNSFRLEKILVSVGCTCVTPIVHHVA

B1: secukinumab (antibody, human IgG1, kappa, V domains shown)
VH: EVQLVESGGGLVQPGGSLRLSCAASGFTFSNYWMNWVRQAPGKGLEWVAAINQDGSEKYYVGSVKGRFTISRDNAKNSLYLQMNSLRVEDTAVYYCVRDYYDILTDYYIHYWYFDLWGRGTLVTVSS
VL: not shown
B1: no binding (recombinant human IL-6R [1]).

B2: tocilizumab (produced in house in CHO cells) (antibody, human IgG1, kappa)
heavy: not shown
light: not shown
notes: also called parental antibody
B2 gave a Kd (recombinant human IL-6R [2]) of 410 pM, a koff (recombinant human IL-6R [2]) of 0.000189 s⁻¹ and a kon (recombinant human IL-6R [2]) of 461000 M⁻¹ s⁻¹. The binding result (recombinant human IL-17A) was “no binding”, the koff (recombinant human IL-6R [3]) was 0.000186 s⁻¹ and the kon (recombinant human IL-6R [3]) was 473000 M⁻¹ s⁻¹. The Kd (recombinant human IL-6R [4]) was 417 pM, the “EC50 (read off the curve)” value [5] was ~1000 pM and the Kd (recombinant human IL-6R [6]) was 467 pM. The koff (recombinant human IL-6R [6]) was 0.000199 s⁻¹ and the kon (recombinant human IL-6R [6]) was 427000 M⁻¹ s⁻¹.

B3: Actemra (commercial tocilizumab) (antibody, human IgG1, kappa)
heavy: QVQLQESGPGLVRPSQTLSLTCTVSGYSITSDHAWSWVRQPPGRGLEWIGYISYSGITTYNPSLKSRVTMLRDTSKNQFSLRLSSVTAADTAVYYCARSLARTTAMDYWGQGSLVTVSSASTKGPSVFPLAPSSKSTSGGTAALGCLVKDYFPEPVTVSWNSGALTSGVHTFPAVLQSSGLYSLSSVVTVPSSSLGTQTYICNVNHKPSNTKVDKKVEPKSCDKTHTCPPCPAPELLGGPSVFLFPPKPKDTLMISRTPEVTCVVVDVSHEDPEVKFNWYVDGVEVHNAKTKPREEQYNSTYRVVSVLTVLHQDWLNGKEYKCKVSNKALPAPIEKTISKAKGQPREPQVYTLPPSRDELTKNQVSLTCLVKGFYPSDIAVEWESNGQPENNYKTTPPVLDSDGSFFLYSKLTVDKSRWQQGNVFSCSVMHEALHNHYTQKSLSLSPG
light: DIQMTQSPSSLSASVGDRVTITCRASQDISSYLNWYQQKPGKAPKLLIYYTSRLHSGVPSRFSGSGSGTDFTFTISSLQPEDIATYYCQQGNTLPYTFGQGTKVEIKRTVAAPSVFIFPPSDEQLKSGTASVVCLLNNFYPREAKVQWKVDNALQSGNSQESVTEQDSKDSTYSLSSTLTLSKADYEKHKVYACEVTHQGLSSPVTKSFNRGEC
notes: also called commercial Actemra; commercial grade Actemra
For B3, the binding result (recombinant human IL-17A) was “no binding”, the Kd (recombinant human IL-6R [7]) was 499 pM and the Kd (recombinant human IL-6R [6]) was 467 pM. The koff (recombinant human IL-6R [6]) was 0.000195 s⁻¹, the kon (recombinant human IL-6R [6]) was 417000 M⁻¹ s⁻¹ and the koff (recombinant human IL-6R [8]) was 0.000191 s⁻¹. It also gave a kon (recombinant human IL-6R [8]) of 413000 M⁻¹ s⁻¹.
